Data: patent US20210347908A1 (ELPISCIENCE SUZHOU BIOPHARMA, published 2021)
Where two headings read alike, the source gives them in different places.

T1: full length C57BL/6 mouse SIRPα stably expressed on CHOK1 cells (mouse (C57BL/6), UniProt P97797 32-513)
T1 construct: whole, on cells; also called CHOK1-C57BL/6 mouse SIRPα-2.22 cells
T1 sequence (looked up): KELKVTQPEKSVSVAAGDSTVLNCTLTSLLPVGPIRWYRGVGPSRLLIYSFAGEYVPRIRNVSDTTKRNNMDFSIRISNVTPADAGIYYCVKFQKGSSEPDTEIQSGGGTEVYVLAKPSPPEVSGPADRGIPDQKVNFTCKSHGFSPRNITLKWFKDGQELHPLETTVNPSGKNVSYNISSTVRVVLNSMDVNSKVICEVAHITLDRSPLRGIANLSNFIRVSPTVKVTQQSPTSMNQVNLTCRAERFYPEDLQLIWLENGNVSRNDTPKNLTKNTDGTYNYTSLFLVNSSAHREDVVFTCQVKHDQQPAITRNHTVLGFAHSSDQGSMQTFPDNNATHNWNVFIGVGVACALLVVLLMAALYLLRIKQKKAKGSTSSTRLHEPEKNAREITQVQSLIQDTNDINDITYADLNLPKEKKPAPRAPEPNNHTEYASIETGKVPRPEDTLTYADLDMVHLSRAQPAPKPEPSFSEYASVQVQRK

B1: chimeric antibody 035c (antibody, V domains shown)
VH: QIQLVQSGPELRKPGETVKISCKASGYSFTNYAMNWVKQAPGKVLKWMGFINTYTGEPTYADDFKGRFAFSLETSASTAYLQINNLKNEDTATYFCTRTRGYYDFDGGAFDYWGQGTSLTVSS
VL: DIVMTQSQKFMSTSIGDRVSVTCKASQNVGTHLAWYQQKPGQSPKALIFSASYRYIGVPDRFTGSGSGTDFTLTITNVQSEDLAEYFCQQYNTYPLTFGAGTKLELK
B2: chimeric antibody 022c (antibody, V domains shown)
VH: QIQLVQSGPELKKPGETVKISCKASGYTFTDYAMHWVKQAPGKGLKWMGWKNTETGESTYAEDFKGRFAFFLETSASTAYLQINNVKNEDTATYFCARGGYGSNYVMDYWGQGTSVIVSS
VL: DIQMTQSSSSFSVSLGDRVTITCKASEDIYNRLAWYQQKPGNAPRLLISGATSLETGVPSRFSGSGSGKDYTLSITSLQTEDVATYYCQQYWNSPRTFGGGTKLEIK
B3: Antibody 022 (hybridoma antibody) (antibody, V domains shown)
VH: QIQLVQSGPELKKPGETVKISCKASGYTFTDYAMHWVKQAPGKGLKWMGWKNTETGESTYAEDFKGRFAFFLETSASTAYLQINNVKNEDTATYFCARGGYGSNYVMDYWGQGTSVIVSS
VL: DIQMTQSSSSFSVSLGDRVTITCKASEDIYNRLAWYQQKPGNAPRLLISGATSLETGVPSRFSGSGSGKDYTLSITSLQTEDVATYYCQQYWNSPRTFGGGTKLEIK
notes: mouse hybridoma antibody
B4: chimeric antibody 001c (antibody, V domains shown)
VH: EVKLEESGGGLVQPGGSMKLSCVASGFTFRNYWMNWVRQSPERGLEWIAEISLKSNTYATHYAESVKGRFAISRDGSKSSFYLQMNDLRAEDTGIYYCTTFTKVVADWHLDVWGAGTTVTVSS
VL: DVLMTQTPLSLPVSLGDQASISCRSSQNIVHSNGNTYLEWYLQKPGQSPKLLIYKVSNRFSGVPDRFSGSGSGTDFTLRISRVEAEDLGVYYCFQGSHVPFTFGSGTKLEIK
B5: chimeric antibody 032c (antibody, V domains shown)
VH: EVRLEESGGGLVQPGGSMKLSCVVSGFTFRNYWMNWVRQSPERGLEWIAEITLKSNTYATHYAESVKGRFAISRDDSKSSFYLQMNDLRPEDTGIYYCTTFTKVVADWHLDVWGAGTTVTVSS
VL: DVLMTQTPLSLPVNLGDQASISCRSSQNIVHSNGNTYLEWYLQKPGQSPKLLIYKVSNRFSGVPDRFSGSGSGTDFTLRISRVEAEDLGVYYCFQGSHVPFTFGSGTKLEIK
B6: chimeric antibody 002c (antibody, V domains shown)
VH: EVKLEESGGGLVQPGGSMILSCVASGFTFRNYWMNWVRQSPERGLEWIAEITLKSNTYATHYAESVKGRFAISRDDSKSSFYLQMNDLRPEDTGIYYCTTFTKVVADWHLDVWGAGTTVTVSS
VL: DVLMTQTPLSLPVSLGDQASISCRSSQNIVHSNGNTYLEWYLQKPGQSPKLLIYKISNRFSGVPDRFSGSGSGTDFTLRISRVEAEDLGVYYCFQGSHVPFTFGSGTKLEIQ
B7: chimeric antibody 055c (antibody, V domains shown)
VH: EVKLVESEGGLVQPGDSMKLSCTASGFTFSDYFMTWIRQVPEKGLEWIANVNYDGRSTYYLDSLKSRFIISRDNANNILYLQMSSLKSEDTATYYCAREGSQTPLYAVDYWGQGTSVTVSS
VL: DIVMTQSQKFMSTTVGDRVNITCKASQNVGTAVAWYQQKPGQSPKLLIYLASNRYTGVPDRFTGSGSGTDFTLTVSDMRSEDLADYFCQQYSIYPFTFGSGTKLEIK
B8: chimeric antibody 050c (antibody, V domains shown)
VH: QIQLVQSGPELKKPGETVKISCKASGYTFTHYSMHWVKQAPGKGLKWMGWINTETAEPTYVDDFKGRFAFSLEASASTAFFQINNLKNEDTATYFCARGGLRQGDYWGQGTTLTVSS
VL: QIVLTQSPPIMSASPGEKVTLTCSATSSVSASYLYWFQQKPGSSPKLWIYSTSNLASGVPARFSGSGSGTSYSLTISNMEPADAASYFCHQWSSYPYTFGGGTKLEIK
B9: Antibody 050 (hybridoma antibody) (antibody, V domains shown)
VH: QIQLVQSGPELKKPGETVKISCKASGYTFTHYSMHWVKQAPGKGLKWMGWINTETAEPTYVDDFKGRFAFSLEASASTAFFQINNLKNEDTATYFCARGGLRQGDYWGQGTTLTVSS
VL: QIVLTQSPPIMSASPGEKVTLTCSATSSVSASYLYWFQQKPGSSPKLWIYSTSNLASGVPARFSGSGSGTSYSLTISNMEPADAASYFCHQWSSYPYTFGGGTKLEIK
notes: mouse hybridoma antibody
B10: chimeric antibody 060c (antibody, V domains shown)
VH: QVQLKESGPGLVAPSESLSITCTVSGFSLTNYDISWIRQSPGKGLEWLGVIWTGGDTNFNSAFMSRLSISKDKSKSQVFLKLNSLQTDDTAIYYCVRVQYFGGSYGPMDYWGQGISVTVSS
VL: DIQMTQASSYLSVSLGGRVTITCEASDHINDWLAWYQQTPGNAPRLLISGATSLETGVPSRFSGSGSGKDYTLSITSLQTEDIATYYCQQYWNTPLTFGAGTRLELK
B11: chimeric antibody 074c (antibody, V domains shown)
VH: QVQLQQPRAELVKPGASVMLSCKASGYTFSSYWIHWVRQGPGQGLEWIGLIHPNSGNTDCSETFKNKATLTVDTSSSTAYMQLSSLASEDSAVYYCARDGASYDWFVHWGQGTLVTVSA
VL: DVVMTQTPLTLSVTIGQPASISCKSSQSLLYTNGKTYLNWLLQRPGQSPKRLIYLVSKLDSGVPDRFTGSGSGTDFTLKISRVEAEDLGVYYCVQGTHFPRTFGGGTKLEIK
B12: Antibody 074 (hybridoma antibody) (antibody, V domains shown)
VH: QVQLQQPRAELVKPGASVMLSCKASGYTFSSYWIHWVRQGPGQGLEWIGLIHPNSGNTDCSETFKNKATLTVDTSSSTAYMQLSSLASEDSAVYYCARDGASYDWFVHWGQGTLVTVSA
VL: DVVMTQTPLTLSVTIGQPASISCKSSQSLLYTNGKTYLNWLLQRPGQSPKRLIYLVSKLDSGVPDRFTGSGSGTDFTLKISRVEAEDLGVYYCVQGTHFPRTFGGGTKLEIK
notes: mouse hybridoma antibody

What was measured:
[1] = biological target: T2, Fc tagged human SIRPα v1 ECD recombinant protein (human, UniProt P78324 31-370); experiment: ELISA
T2 construct: range 1-370; cloned range M1-R370 includes the signal peptide; also called hSIRPα V1; not shown: human IgG Fc region (hFc) of the pCPC vector
Procedure: (§1) Binding specificity of the purified hybridoma antibodies against SIRP family members was detected by ELISA assay using recombinant proteins of Fc tagged human SIRPα v1 ECD, human SIRPα v2 ECD, human SIRPβ ECD and human SIRPγ ECD. Briefly the antibodies were incubated with ELISA microplate coated antigens at 37° C. for 1 hour. After washing, horseradish peroxidase (HRP) labeled anti-mouse or anti-human IgG 2nd Ab (Sigma) was added and incubated at 37° C. for 1 hour. Then, 100 μl/well of TMB solution (Biotechnology) was added. After incubation for 15 minutes at room temperature, the reaction was stopped by the addition of 50 μl of 1N HCl. OD 450 nm was read and EC₅₀ was calculated. Other than 060 and HEFLB, all of the antibodies as tested can bind with both human SIRPα v1 and SIRPα v2. 060 and HEFLB can bind with human SIRPα v1 but not v2. Other than 055, all of the antibodies as tested can bind with human SIRPβ. In comparison with other known anti-SIRPα antibodies, only 022, 035 and 050 can bind with human SIRPγ weakly.
(§2) The purified chimeric antibodies were applied for binding specificity analysis and species cross reactivity analysis (refer to methods described in Example 3.3 and 3.4). FIGS. 1A to 1D show binding specificity of anti-SIRPα chimeric antibodies against recombinant proteins of human SIRPα v1 ECD (A), human SIRPα v2 ECD (B), human SIRPβ ECD (C) and human SIRPγ ECD (D) as measured by ELISA analysis.

[2] = biological target: T3, full length human SIRPα v1 stably expressed on CHOK1 cells (human, UniProt P78324 31-504); experiment: FACS on CHOK1 cells
T3 construct: whole, on cells; also called CHOK1-human SIRPα v1-1B4 cells; CHOK1-human SIRPα v1
Procedure: Species cross reactivity of the purified hybridoma antibodies against human, cyno and mouse SIRPα was determined by FACS assay using CHOK1-human SIRPα v1-1B4 cells, CHOK1-cyno SIRPα-2A2 cells, and CHOK1-C57BL/6 mouse SIRPα-2.22 cells, which stably expressing SIRPα protein. Briefly the antibodies were incubated with 2×10⁵ target cells at 4° C. for 1 hour. After washing, fluorescence labeled anti-mouse or anti-human IgG 2nd antibody (Life Technologies) was added and incubated at 4° C. for 1 hour. Geometric median fluorescence intensity was detected and EC₅₀ was calculated. In particular, it is noted, in contrast to the other antibodies tested in the same experiment, 060 cannot bind with cyno SIRPα and 035 has cross reactivity against C57BL/6 mouse SIRPα. […]

[3] = biological target: T2, Fc tagged human SIRPα v1 ECD …; experiment: ELISA; remark: listed apart in the source
Procedure: as §1, §2

[4] = biological target: T1, full length C57BL/6 mouse SIRPα stably …; experiment: FACS on CHOK1 cells
Procedure: (§3) Species cross reactivity of the purified hybridoma antibodies against human, cyno and mouse SIRPα was determined by FACS assay using CHOK1-human SIRPα v1-1B4 cells, CHOK1-cyno SIRPα-2A2 cells, and CHOK1-C57BL/6 mouse SIRPα-2.22 cells, which stably expressing SIRPα protein. Briefly the antibodies were incubated with 2×10⁵ target cells at 4° C. for 1 hour. After washing, fluorescence labeled anti-mouse or anti-human IgG 2nd antibody (Life Technologies) was added and incubated at 4° C. for 1 hour. Geometric median fluorescence intensity was detected and EC₅₀ was calculated. In particular, it is noted, in contrast to the other antibodies tested in the same experiment, 060 cannot bind with cyno SIRPα and 035 has cross reactivity against C57BL/6 mouse SIRPα.
as §2

[5] = biological target: T3, full length human SIRPα v1 stably …; experiment: FACS on CHOK1 cells; remark: listed apart in the source
Procedure: as §3, §2

[6] = biological target: T3, full length human SIRPα v1 stably …; experiment: FACS on CHOK1 cells; remark: listed apart in the source
Procedure: as §3

T2 sequence (P78324 31-370 limits assumed): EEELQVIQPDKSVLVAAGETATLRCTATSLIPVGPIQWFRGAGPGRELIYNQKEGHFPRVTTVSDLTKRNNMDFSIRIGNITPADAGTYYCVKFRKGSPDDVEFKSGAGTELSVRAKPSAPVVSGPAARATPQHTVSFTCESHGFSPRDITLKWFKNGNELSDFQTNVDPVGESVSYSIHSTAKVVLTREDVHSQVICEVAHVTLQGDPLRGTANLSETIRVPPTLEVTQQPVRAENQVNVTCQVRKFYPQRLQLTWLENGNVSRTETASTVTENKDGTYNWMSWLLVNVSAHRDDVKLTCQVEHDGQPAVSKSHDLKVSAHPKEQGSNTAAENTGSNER
T3 sequence (P78324 31-504): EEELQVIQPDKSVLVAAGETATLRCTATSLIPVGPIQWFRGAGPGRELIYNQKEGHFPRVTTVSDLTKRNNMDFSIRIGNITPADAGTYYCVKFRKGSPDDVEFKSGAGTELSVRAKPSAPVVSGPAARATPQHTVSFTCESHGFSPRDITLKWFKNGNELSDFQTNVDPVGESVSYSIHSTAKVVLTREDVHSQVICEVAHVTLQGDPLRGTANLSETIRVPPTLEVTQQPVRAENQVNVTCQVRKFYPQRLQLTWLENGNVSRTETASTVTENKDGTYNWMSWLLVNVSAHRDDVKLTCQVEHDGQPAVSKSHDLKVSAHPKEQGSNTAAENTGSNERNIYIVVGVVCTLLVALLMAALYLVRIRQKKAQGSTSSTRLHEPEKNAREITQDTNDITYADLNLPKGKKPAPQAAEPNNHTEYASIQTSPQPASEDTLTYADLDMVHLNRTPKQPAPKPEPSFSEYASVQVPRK

| Binder | EC50 [1] | EC50 [2] | EC50 [3] | MFI at 10 nM [4] | EC50 [5] | EC50 [6] | binding result [4] |
| --- | --- | --- | --- | --- | --- | --- | --- |
| B1 | 0.08 nM | 1.3 nM | 0.08 nM | 13400 MFI | 1.3 nM | 1.5 nM |  |
| B2 | 0.11 nM | 1.7 nM | 0.11 nM |  | 1.7 nM |  | no binding (tested: 10 nM) |
| B3 |  |  |  |  |  | 2.1 nM |  |
| B4 | 0.12 nM | 1.7 nM | 0.12 nM |  | 1.7 nM |  | no binding (tested: 10 nM) |
| B5 | 0.12 nM | 3 nM | 0.12 nM |  | 3 nM |  | no binding (tested: 10 nM) |
| B6 | 0.06 nM | 2.4 nM | 0.06 nM |  | 2.4 nM |  | no binding (tested: 10 nM) |
| B7 | 0.11 nM | 3.4 nM | 0.11 nM |  | 3.4 nM |  | no binding (tested: 10 nM) |
| B8 | 0.11 nM | 2.4 nM | 0.11 nM |  | 2.4 nM |  | no binding (tested: 10 nM) |
| B9 |  |  |  |  |  | 1.3 nM |  |
| B10 | 0.08 nM | 2.8 nM | 0.08 nM |  | 2.8 nM |  | no binding (tested: 10 nM) |
| B11 | 0.14 nM | 5.5 nM | 0.14 nM |  | 5.5 nM |  | no binding (tested: 10 nM) |
| B12 |  |  |  |  |  | 1 nM |  |
